From paper PMC9636267 (2022) come the findings set out here.

B1: HCoV-229E RBD (294–435 aa) (domain or fragment)
chain: PVYHKHTFIVLYVDFKPQSGGGKCFNCYPAGVNITLANFNETKGPLCVDTSHFTTKYVAVYANVGRWSASINTGNCPFSFGKVNNFVKFGSVCFSLKDIPGGCAMPIVANWAYSKYYTIGSLYVSWSDGDGITGVPQPVEGV
B2: Fab S11 (Fab, V domains shown)
VH: EVQLVESGGGLVQPGGSLRLSCAASGFNISSSYIHWVRQAPGKGLEWVASIYSSYGYTYYADSVKGRFTISADTSKNTAYLQMNSLRAEDTAVYYCARWWITFGGAGGGLDYWGQGTLVTVSS
VL: DIQMTQSPSSLSASVGDRVTITCRASQSVSSAVAWYQQKPGKAPKLLIYSASSLYSGVPSRFSGSRSGTDFTLTISSLQPEDFATYYCQQGYAWRNTFGQGTKVEIK
B3: HCoV-229E S ectodomain (17–1115 aa), 229E S trimer (domain or fragment)
chain: QTTNGLNTSYSVCNGCVGYSENVFAVESGGYIPSDFAFNNWFLLTNTSSVVDGVVRSFQPLLLNCLWSVSGLRFTTGFVYFNGTGRGDCKGFSSDVLSDVIRYNLNFEENLRRGTILFKTSYGVVVFYCTNNTLVSGDAHIPFGTVLGNFYCFVNTTIGNETTSAFVGALPKTVREFVISRTGHFYINGYRYFTLGNVEAVNFNVTTAETTDFCTVALASYADVLVNVSQTSIANIIYCNSVINRLRCDQLSFDVPDGFYSTSPIQSVELPVSIVSLPVYHKHTFIVLYVDFKPQSGGGKCFNCYPAGVNITLANFNETKGPLCVDTSHFTTKYVAVYANVGRWSASINTGNCPFSFGKVNNFVKFGSVCFSLKDIPGGCAMPIVANWAYSKYYTIGSLYVSWSDGDGITGVPQPVEGVSSFMNVTLDKCTKYNIYDVSGVGVIRVSNDTFLNGITYTSTSGNLLGFKDVTKGTIYSITPCNPPDQLVVYQQAVVGAMLSENFTSYGFSNVVELPKFFYASNGTYNCTDAVLTYSSFGVCADGSIIAVQPRNVSYDSVSAIVTANLSIPSNWTTSVQVEYLQITSTPIVVDCSTYVCNGNVRCVELLKQYTSACKTIEDALRNSARLESADVSEMLTFDKKAFTLANVSSFGDYNLSSVIPSLPTSGSRVAGRSAIEDILFSKLVTSGLGTVDADYKKCTKGLSIADLACAQYYNGIMVLPGVADAERMAMYTGSLIGGIALGGLTSAVSIPFSLAIQARLNYVALQTDVLQENQKILAASFNKAMTNIVDAFTGVNDAITQTSQALQTVATALNKIQDVVNQQGNSLNHLTSQLRQNFQAISSSIQAIYDRLDTIQADQQVDRLITGRLAALNVFVSHTLTKYTEVRASRQLAQQKVNECVKSQSKRYGFCGNGTHIFSIVNAAPEGLVFLHTVLLPTQYKDVEAWSGLCVDGTNGYVLRQPNLALYKEGNYYRITSRIMFEPRIPTMADFVQIENCNVTFVNISRSELQTIVPEYIDVNKTLQELSYKLPNYTVPDLVVEQYNQTILNLTSEISTLENKSAELNYTVQKLQTLIDNINSTLVDLKWLNRVETYIKWP

Read-outs that look alike come from different tables or passages of the source.

Assay in all cases: SPR
The target of assay [1] is R10.
Assay [2] deals with S15.
Assay [3] concerns the target R14.
The target in assay [4] is S08.
The target of assay [5] is S10.
The target of assay [6] is R07.
Assay [7] has as its target S02.
In assay [8] the target is R17.
Assay [9] addresses R10. The source holds these as a separate data set.
In assay [10] the target is S15. This is another data set of the same source.
Assay [11] addresses R14. The source holds these as a separate data set.
The target of assay [12] is S08. The source holds these as a separate data set.
Assay [13] addresses S10. This is another data set of the same source.
Assay [14] addresses R07. This is another data set of the same source.
Assay [15] has as its target S02. This is another data set of the same source.
The target of assay [16] is R17. The source holds these as a separate data set.
In assay [17] the target is B1.
In assay [18] the target is B3.
The target in assay [19] is B1.
The target in assay [20] is B3.
The target of assay [21] is B1.
In assay [22] the target is B3.
Assay [23] has as its target R10. This is another data set of the same source.
For assay [24], the target named is S15. The source holds these as a separate data set.
Assay [25] has as its target R14. The source holds these as a separate data set.
The target of assay [26] is S08. The source holds these as a separate data set.
Assay [27] deals with S10. The source holds these as a separate data set.
Assay [28] addresses R07. The source holds these as a separate data set.
Assay [29] addresses S02. The source holds these as a separate data set.
For assay [30], the target named is R17. This is another data set of the same source.

For the molecule B1, the dissociation constant Kd came to 0.32 nM in the assay with R10 [1]; 0.26 nM in the assay with S15 [2]; 0.81 nM with R14 [3]; 2.9 nM in the assay with S08 [4]; 0.51 nM with S10 [5]; 0.49 nM with S02 [7]. The Kd in the assay with R17 [8] was 0.92 nM; with R10 [9] it was 0.3 nM; with S15 [10], 0.3 nM; with R14 [11], 0.8 nM; with S08 [12], 3 nM; in the assay with S10 [13], 0.5 nM. Also, the Kd with R07 [14] came to 2 nM; in the assay with S02 [15] it was 0.5 nM; with R17 [16], 0.9 nM. Also, the koff in the assay with R10 [1] amounted to 0.0019 s⁻¹; in the assay with S15 [2], 0.00097 s⁻¹; with R14 [3] it was 0.003 s⁻¹; with S08 [4], 0.0053 s⁻¹; with S10 [5], 0.0031 s⁻¹; with R07 [6], 0.0016 s⁻¹. Also, the koff was found to be 0.0018 s⁻¹ with S02 [7] and 0.0025 s⁻¹ in the assay with R17 [8].
Take B2: the koff in assay [17] was determined as 0.00081 s⁻¹; in assay [18], 0.00054 s⁻¹. Moreover, the Kd in assay [19] was determined as 0.2 nM; in assay [20], 0.4 nM; in assay [21] it was 0.21 nM; in assay [22], 0.38 nM.
With B3, the Kd was found to be 0.4 nM with R10 [9]; 0.4 nM in the assay with S15 [10]; 2.7 nM in the assay with R14 [11]; 2.4 nM in the assay with S08 [12]; 0.3 nM with S10 [13]; 2 nM with R07 [14]. For the same molecule, the dissociation constant (Kd) in the assay with S02 [15] came to 0.8 nM; in the assay with R17 [16], 2.4 nM; with R10 [23] it was 0.43 nM; with S15 [24] it was 0.44 nM; in the assay with S10 [27] it was 0.28 nM; with S02 [29], 0.75 nM. Further, the koff amounted to 0.0012 s⁻¹ with R10 [23]; 0.00098 s⁻¹ in the assay with S15 [24]; 0.0039 s⁻¹ with R14 [25]; 0.0054 s⁻¹ with S08 [26]; 0.0018 s⁻¹ in the assay with S10 [27]; 0.0011 s⁻¹ with R07 [28]. Moreover, the koff in the assay with S02 [29] was 0.0035 s⁻¹; with R17 [30], 0.0024 s⁻¹.

As usually defined, the Kd is the concentration at which binding is half-saturated. As a reminder, the koff is the first-order rate constant of dissociation. A high value points to a short-lived complex.
